Measured values published in IntAct's records for PubMed 22327218.

biological target: anm5_human PRMT5 (UniProt O14744)
Sequence (O14744 whole entry): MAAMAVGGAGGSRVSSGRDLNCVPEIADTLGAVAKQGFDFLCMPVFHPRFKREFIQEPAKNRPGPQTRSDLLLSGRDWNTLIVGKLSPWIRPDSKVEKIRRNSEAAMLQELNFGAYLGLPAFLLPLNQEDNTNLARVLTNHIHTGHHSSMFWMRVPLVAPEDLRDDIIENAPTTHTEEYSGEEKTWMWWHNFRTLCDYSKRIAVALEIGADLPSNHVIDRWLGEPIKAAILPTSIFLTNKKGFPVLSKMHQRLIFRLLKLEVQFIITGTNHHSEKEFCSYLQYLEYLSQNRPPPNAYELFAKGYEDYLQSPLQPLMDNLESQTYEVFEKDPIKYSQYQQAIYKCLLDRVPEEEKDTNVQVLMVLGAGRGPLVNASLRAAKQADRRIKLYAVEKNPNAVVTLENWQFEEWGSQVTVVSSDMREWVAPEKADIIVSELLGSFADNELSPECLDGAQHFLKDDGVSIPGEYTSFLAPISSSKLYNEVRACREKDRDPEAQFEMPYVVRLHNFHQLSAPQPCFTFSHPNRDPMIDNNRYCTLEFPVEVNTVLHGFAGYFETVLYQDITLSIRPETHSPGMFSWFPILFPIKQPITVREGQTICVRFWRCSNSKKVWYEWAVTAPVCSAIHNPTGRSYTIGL

Transcription factor E2F1 (Homo sapiens), Q01094 R109K, sequence (Q01094 whole entry R109K): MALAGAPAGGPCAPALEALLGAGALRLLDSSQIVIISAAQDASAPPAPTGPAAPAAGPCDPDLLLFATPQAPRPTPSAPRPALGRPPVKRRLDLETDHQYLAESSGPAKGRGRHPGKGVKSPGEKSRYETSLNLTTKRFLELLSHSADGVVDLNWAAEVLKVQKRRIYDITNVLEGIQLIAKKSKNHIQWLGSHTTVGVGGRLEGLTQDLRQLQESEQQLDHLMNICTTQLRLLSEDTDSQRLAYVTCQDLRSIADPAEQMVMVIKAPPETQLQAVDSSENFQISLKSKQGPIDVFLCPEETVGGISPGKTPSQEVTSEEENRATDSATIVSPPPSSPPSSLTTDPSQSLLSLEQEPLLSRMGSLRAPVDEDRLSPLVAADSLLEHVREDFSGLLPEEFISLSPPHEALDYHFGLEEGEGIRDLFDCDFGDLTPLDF
Transcription factor E2F1 (Homo sapiens), Q01094 R113K, sequence (Q01094 whole entry R113K): as the sequence (Q01094 whole entry R109K) above, with K109R, R113K counted along it
Transcription factor E2F1 (Homo sapiens), Q01094 R111K, sequence (Q01094 whole entry R111K): as the sequence (Q01094 whole entry R109K) above, with K109R, R111K counted along it

Q: For “Transcription factor E2F1 (Homo sapiens), Q01094 R109K”, which “effect of a mutation on the interaction” value is on record?
A: Its value is “disrupting interaction”.

Q: Which “effect of a mutation on the interaction” value does the source give for “Transcription factor E2F1 (Homo sapiens), Q01094 R111K” here?
A: Its value is “disrupting interaction”.

Q: Which “effect of a mutation on the interaction” value does the source give for “Transcription factor E2F1 (Homo sapiens), Q01094 R113K” here?
A: The value was “disrupting interaction”.
